{
  "source": "paper PMC10607743",
  "about": "“An Enzymatic Strategy for the Selective Methylation of High-Value-Added Tetrahydroprotoberberine Alkaloids” (International Journal of Molecular Sciences, 2023)",
  "key": {"PsSOMT": {"molecular_target": "T1, PsSOMT (Papaver somniferum, UniProt I3PLQ7)", "T1 construct": "gene SOMT3", "T1 sequence (I3PLQ7 whole entry)": "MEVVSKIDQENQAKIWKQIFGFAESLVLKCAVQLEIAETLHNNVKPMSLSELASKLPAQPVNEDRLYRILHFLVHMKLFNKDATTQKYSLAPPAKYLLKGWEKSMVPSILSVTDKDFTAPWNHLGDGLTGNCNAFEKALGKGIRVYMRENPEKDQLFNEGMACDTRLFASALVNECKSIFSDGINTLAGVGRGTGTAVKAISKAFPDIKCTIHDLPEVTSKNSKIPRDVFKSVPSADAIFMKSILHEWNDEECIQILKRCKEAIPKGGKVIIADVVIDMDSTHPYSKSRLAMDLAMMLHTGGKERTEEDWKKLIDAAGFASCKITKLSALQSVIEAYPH", "conditions": "100 mM Tris-HCl, 37 °C, substrate 50-500 μM; methyl donor SAM (concentration and pH not given)"}, "[1]": {"test_system": "Oc1cc2c(cc1O)C1Cc3ccc(O)c(O)c3CN1CC2", "assay": "purified protein", "conditions": "100 mM Tris-HCl, 37 °C, substrate 50-500 μM, methyl donor SAM (concentration and pH not given)"}},
  "data": [
    {"compound": "Oc1cc2c(cc1O)C1Cc3ccc(O)c(O)c3CN1CC2", "note": "(centres unmarked) [2,3,9,10-tetrahydroxyberbine]", "values": [
      {"measurement": "Km", "setting": "PsSOMT", "value": "53.8 ± 12", "unit": "µM"}
    ]},
    {"compound": "Cj4’OMT (Coptis japonica)", "values": [
      {"measurement": "Km", "setting": "[1]", "value": "83.50 ± 19.72", "unit": "µM"},
      {"measurement": "Vmax", "setting": "[1]", "value": 1.09, "unit": "µmol/min/mg"},
      {"measurement": "kcat", "setting": "[1]", "value": "1.09 ± 0.08", "unit": "s⁻¹"},
      {"measurement": "kcat/Km", "setting": "[1]", "value": 13000, "unit": "M⁻¹ s⁻¹"}
    ]}
  ]
}
